Measurements published in paper PMC10509710.
Each block holds one substance with its values, some of them ahead of it.

Experiments:
[1] = molecular target: human full-length cluster of differentiation 36 (CD36), glycosylated (human) (UniProt P16671); assay: MST; Cy5-labeled receptor (RED-NHS, lysines) at constant 20 nM, ligand in a 16-point 1:1 dilution series; exchange buffer (50 mM Hepes pH 7.5, 150 mM NaCl, 0.025% LMNG, 0.005% CHS); 25 °C, 40% MST power; apparent Kd, one-site specific binding; molar values from average molecular weights (267.5 kDa HDL, 3500 kDa oxLDL)
[2] = molecular target: human full-length scavenger receptor class B type 1 (SR-B1), glycosylated (human) (UniProt Q8WTV0); assay: as above
[3] = molecular target: human full-length scavenger receptor class B type 1 (SR-B1), glycosylated (human) (UniProt Q8WTV0); assay: flow cytometry on cells; Sf9 cells 72 h after baculovirus infection, 10 μg/ml DiI-HDL or DiI-oxLDL in ESF 921/0.5% BSA for 90 min at 4 °C; MFI compared with cells infected with empty vector
[4] = molecular target: human full-length cluster of differentiation 36 (CD36), glycosylated (human) (UniProt P16671); assay: as above

human full-length cluster of differentiation 36 (CD36), glycosylated (human), sequence (P16671 whole entry): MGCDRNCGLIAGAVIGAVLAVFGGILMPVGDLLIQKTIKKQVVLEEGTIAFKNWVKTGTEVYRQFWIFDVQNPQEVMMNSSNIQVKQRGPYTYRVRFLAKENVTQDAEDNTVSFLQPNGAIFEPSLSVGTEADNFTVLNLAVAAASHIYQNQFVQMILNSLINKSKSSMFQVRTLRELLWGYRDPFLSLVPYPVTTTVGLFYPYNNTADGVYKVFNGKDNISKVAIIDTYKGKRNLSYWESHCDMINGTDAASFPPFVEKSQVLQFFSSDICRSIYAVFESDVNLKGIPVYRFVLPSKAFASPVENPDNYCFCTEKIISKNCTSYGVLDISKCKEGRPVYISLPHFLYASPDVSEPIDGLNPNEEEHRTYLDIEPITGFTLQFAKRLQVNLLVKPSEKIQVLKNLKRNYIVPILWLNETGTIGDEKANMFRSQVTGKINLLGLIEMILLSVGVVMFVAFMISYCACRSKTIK
human high-density lipoprotein (HDL), holoparticle, sequence (P02647 whole entry, looked up): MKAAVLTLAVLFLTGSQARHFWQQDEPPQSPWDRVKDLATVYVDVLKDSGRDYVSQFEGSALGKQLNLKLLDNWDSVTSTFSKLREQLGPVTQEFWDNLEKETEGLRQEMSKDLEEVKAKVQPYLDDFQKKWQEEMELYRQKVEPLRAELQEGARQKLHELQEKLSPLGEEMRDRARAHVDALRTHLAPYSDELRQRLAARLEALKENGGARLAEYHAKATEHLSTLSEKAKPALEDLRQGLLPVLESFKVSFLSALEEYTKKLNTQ
human full-length scavenger receptor class B type 1 (SR-B1), glycosylated (human), sequence (Q8WTV0 other isoform, or with tags, fused parts or gaps): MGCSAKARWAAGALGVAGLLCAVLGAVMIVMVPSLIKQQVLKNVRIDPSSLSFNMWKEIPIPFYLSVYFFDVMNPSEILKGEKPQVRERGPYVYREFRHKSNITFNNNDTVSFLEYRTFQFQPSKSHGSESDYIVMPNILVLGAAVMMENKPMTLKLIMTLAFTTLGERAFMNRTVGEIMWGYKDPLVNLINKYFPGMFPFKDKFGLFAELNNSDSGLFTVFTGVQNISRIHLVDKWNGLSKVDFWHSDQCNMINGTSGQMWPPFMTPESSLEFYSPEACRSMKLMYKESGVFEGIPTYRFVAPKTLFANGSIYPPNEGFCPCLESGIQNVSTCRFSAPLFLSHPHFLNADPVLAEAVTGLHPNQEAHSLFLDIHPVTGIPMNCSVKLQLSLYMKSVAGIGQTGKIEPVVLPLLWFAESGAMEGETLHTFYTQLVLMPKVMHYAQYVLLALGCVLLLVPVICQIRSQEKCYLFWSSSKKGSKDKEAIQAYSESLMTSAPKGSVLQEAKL
DiI-labeled high-density lipoprotein (DiI-HDL), sequence (P02647 whole entry, looked up): as the sequence (P02647 whole entry, looked up) above

Kd [1]: 123 nM
Kd [2]: 194 nM
Substance: human high-density lipoprotein (HDL), holoparticle (from UniProt P02647 19-267) (complex)

percent increase of DiI-HDL binding (MFI at 4 °C) against empty vector [3]: 37%
Substance: DiI-labeled high-density lipoprotein (DiI-HDL) (from UniProt P02647 19-267) (complex)

percent increase of DiI-oxLDL binding (MFI at 4 °C) against empty vector [4]: 21%
Substance: DiI-labeled oxidized low-density lipoprotein (DiI-oxLDL) (complex)
